The supplement of paper PMC10126150
± gives the standard deviation of the averaged measurements.

What follows are sequences tested on ATP (assay: switch fluorescence ratio, 500 uM ATP over buffer (Cy3 cluster intensity, sum of 5 cycles each) (fold (ratio)); higher = stronger signal-on switching upon ATP binding; sequences stand for … in TCGTCGGCAGCGTCAGATGTGTATAAGAGACAGTTTTTTTTTTTTTTTTTTTTTTTTT…TC). Conditions: aptamer strand: ATP DNA aptamer (quencher-CACCTGGGGGAGTATTGCGGAGGAAGG + anchor), 100 nM annealed; ATP concentration: 500 uM.
Method in brief: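 Per cluster, summed Cy3 intensity from the target cycles was divided by that from the buffer cycles to give the fluorescence ratio, then averaged per switch-domain sequence. Clusters outside 100-1000 RFU were excluded. The Cy3-labelled switching-strand clusters, on a modified Illumina MiSeq flow-cell, were annealed to 100 nM quencher-labelled ATP aptamer and imaged in selection buffer, then after 15 min with 500 uM ATP at 22 °C, for five cycles with NaOH stripping and re-annealing between them.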
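Further: ATP exposure 15 min at 22 °C before imaging.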

In order of falling switch fluorescence ratio:
1. GCGATACTCG  3.56 ± 0.16
2. GACGGGGGAA  1.82 ± 1.3
3. TTTGTAACCT  1.74 ± 0.035
4. CGGAACATGC  1.6 ± 0.12
5. TCTGCCATTT  1.44 ± 0.63
6. GCAATTTCGC  1.42 ± 0.58
7. CAGCTAGGTT  1.31 ± 0.39
8. GCGAACGCGC  1.27 ± 0.011
9. CGTACGGACC  1.26 ± 0.046
10. ATCACATGAC  1.19 ± 0.016
11. ATGGTAAACC  1.16 ± 0.066
12. AGCATACGTT  1.16 ± 0.051
13. TTGGACTCCG  1.14 ± 0.15
14. AGGGAGATAA  1.14 ± 0.17
15. CATCCGAGGT  1.14 ± 0.23
16. CTAAAGTACT  1.11 ± 0.041
17. CCTGGTGGAC  1.11 ± 0.058
18. GACGGGGACT  1.1 ± 0.025
19. TGTAAACGGG  1.09 ± 0.12
20. TCTCGTCAGC  1.087 ± 0.0041
21. GGCCGTAATG  1.09 ± 0.019
22. ATTAGGAAAT  1.08 ± 0.1
23. ACTGTATACG  1.08 ± 0.026
24. TGACATCTA  1.07 ± 0.057
25. TCTCAGGGGT  1.07 ± 0.094
26. TCTCATTCAG  1.06 ± 0.14
27. CGTACTAAAA  1.06 ± 0.036
28. TACTTTGCTT  1.06 ± 0.038
29. TAAATGTTAC  1.0644 ± 0.0005
30. TCGATAAATG  1.06 ± 0.033
31. CGAACGGATT  1.06 ± 0.054
32. ATAGTACTTT  1.05 ± 0.044
33. GATGGTAAAC  1.05 ± 0.056
34. TTTATGCTGC  1.05 ± 0.038
35. TAGCCGGCCT  1.05 ± 0.025
36. AATGATGTAC  1.05 ± 0.01
37. AGTCCGGGGT  1.04 ± 0.025
38. ATGAGTACGG  1.04 ± 0.03
39. ATTAGGGGGC  1.04 ± 0.061
40. ATCACTAGGA  1.04 ± 0.037
41. AATTACGATT  1.04 ± 0.034
42. TGGTTAGCG  1.04 ± 0.024
43. ATATAGGTA  1.036 ± 0.0097
44. CCAGAACTTA  1.03 ± 0.026
45. GCGATTGGAT  1.03 ± 0.0022
46. TCAACCCTTA  1.03 ± 0.038
47. TGTGTTATGT  1.03 ± 0.038
48. TAATAGCATA  1.03 ± 0.033
49. GAACAAGGAG  1.03 ± 0.077
50. CAAATAAACC  1.03 ± 0.018
51. AAGGTAGAAA  1.03 ± 0.016
52. GATTACCAAG  1.03 ± 0.025
53. TTTTGGGTCA  1.02 ± 0.018
54. ATGTGGGTCT  1.02 ± 0.056
55. CGTGCTGGCA  1.019 ± 0.0064
56. AGTTCTTGGC  1.02 ± 0.0042
57. TTGTGTTTAG  1.016 ± 0.0044
58. GACTATTTGG  1.02 ± 0.044
59. TTTGGTTTTC  1.02 ± 0.033
60. GAGGAAACAG  1.022 ± 0.0067
61. TTTTGAGGCA  1.02 ± 0.027
62. GTGTTTAGGA  1.02 ± 0.018
63. CGTACACGTT  1.02 ± 0.051
64. TAAAAAGATG  1.02 ± 0.044
65. CCGTTGTCCA  1.02 ± 0.032
66. GGGGGTGTGA  1.02 ± 0.017
67. TTGTGCTGTA  1.02 ± 0.013
68. TCTGGGTGCC  1.02 ± 0.055
69. TTCGGGAACA  1.02 ± 0.038
70. CTGATTTTTT  1.02 ± 0.045
71. TTTTACTTGT  1.025 ± 0.0037
72. GGTAGTCCGG  1.02 ± 0.054
73. TCAGGGCTAA  1.02 ± 0.062
74. TATTTATAGT  1.02 ± 0.013
75. CTAATTGCGG  1.01 ± 0.013
76. GGGTCATGTA  1.008 ± 0.0027
77. AGGGTCGGAC  1.01 ± 0.012
78. TTTGATTGGG  1.01 ± 0.037
79. TTGTTATTCG  1.01 ± 0.087
80. GTCGTTTGGA  1.01 ± 0.035
81. GAAGAGGGGT  1.01 ± 0.014
82. CGAAACAGCA  1.012 ± 0.0064
83. AGAAATAATC  1.01 ± 0.015
84. TAAAAGGGGT  1.01 ± 0.05
85. TCCATCGGGT  1.01 ± 0.038
86. AGGTACGGAG  1.01 ± 0.019
87. GTGTCCCTC  1.01 ± 0.04
88. TCCTTGTAAG  1.01 ± 0.03
89. TTTGTGCTTT  1.01 ± 0.02
90. GTTAGTGCGA  1.01 ± 0.037
91. CTTTTCTTCA  1.01 ± 0.046
92. TTGCGTGTGA  1.01 ± 0.028
93. CATATTCGCT  1.01 ± 0.016
94. GGGGCGAGTC  1.01 ± 0.1
95. ACGTTGAATG  1.01 ± 0.011
96. GAACATGGGC  1.012 ± 0.0084
97. GCCCTATAGG  1.01 ± 0.011
98. CTCATAAGTT  1.01 ± 0.028
99. GAAAGGGTTT  1.01 ± 0.048
100. TGTGATGGTT  1.005 ± 0.0013
101. TGCAGTCAAG  1.01 ± 0.016
102. TCTTTTAGGC  1 ± 0.036
103. AATGAATCGT  1 ± 0.015
104. ACGACGTGGG  1 ± 0.024
105. ACCGTCAGTG  1 ± 0.015
106. TGATAGTAGT  1 ± 0.025
107. GACTATTGGG  1 ± 0.044
108. TTAGGGCCGA  1 ± 0.031
109. GGAGTCGGGG  1 ± 0.012
110. TAAGAGGGGC  1 ± 0.037
111. GGTGCTTAAT  1 ± 0.037
112. AGCGGATTGT  1 ± 0.02
113. CTCTTTGCTT  1 ± 0.006
114. ATAAATGCGT  1.002 ± 0.0031
115. CAAATGGTCT  1 ± 0.013
116. TTGGTGGGGT  1 ± 0.033
117. AATGCTGACA  1 ± 0.016
118. TTGTATAAGA  1.003 ± 0.0088
119. GGAAGCGCTC  1 ± 0.02
120. ACAGGGTAGC  1 ± 0.015
121. GGCGGTTTGG  1.002 ± 0.0058
122. AAAGTGGGGT  1 ± 0.018
123. GGTTGAAGGT  1 ± 0.03
124. ATGGGATGGG  1 ± 0.025
125. AGTGGGACGC  1 ± 0.044
126. GTTGATCCTT  0.9987 ± 0.0075
127. GTTGAAGG  0.9986 ± 0.0032
128. AATCTTGTTG  0.998 ± 0.021
129. GGCCTACCAT  0.9979 ± 0.0091
130. TAGAACAGTT  0.9982 ± 0.0013
131. AAGCGTTGTG  0.9984 ± 0.008
132. GAGGGGACGA  0.998 ± 0.011
133. GAGTTATGTA  0.997 ± 0.016
134. TAACTAAAGG  0.9971 ± 0.0099
135. TAGGTTGCGA  0.996 ± 0.021
136. GCCGGGCAAC  0.995 ± 0.037
137. CAGTATATTG  0.995 ± 0.025
138. AAGAGGCGCT  0.995 ± 0.05
139. TTGGTTCGC  0.994 ± 0.094
140. TCTTTTGGAT  0.994 ± 0.019
141. TATAGACTTA  0.994 ± 0.026
142. TTGGTTTTCT  0.994 ± 0.045
143. TAAATTCAGA  0.994 ± 0.031
144. CGTAGTAGTG  0.993 ± 0.027
145. GCAGTATAAT  0.9932 ± 0.0099
146. TACATAATTA  0.993 ± 0.021
147. GAGAAGAGGA  0.9918 ± 0.0021
148. TATTGGCTTC  0.992 ± 0.018
149. AACATGTTGG  0.991 ± 0.047
150. CGAGTTAGGG  0.9906 ± 0.0021
151. ACTCGGGGGG  0.991 ± 0.023
152. TTTTATTGCT  0.991 ± 0.036
153. CTTTATGTTT  0.991 ± 0.015
154. ATAATTTGGG  0.99 ± 0.017
155. GCTGAAGGGA  0.99 ± 0.042
156. AATTGGGTTT  0.99 ± 0.023
157. CGATGTGGGT  0.989 ± 0.044
158. TGATTCTTAG  0.989 ± 0.023
159. TGGTTTGAGG  0.989 ± 0.035
160. GCTGGCTTGC  0.988 ± 0.021
161. AAGGGGAAGT  0.987 ± 0.038
162. ATTCTGTTTT  0.986 ± 0.028
163. GGGGATCGCG  0.986 ± 0.033
164. GGGAAGGCAT  0.986 ± 0.047
165. GCAGGGATGG  0.985 ± 0.035
166. ACGAATTGTT  0.9848 ± 0.0026
167. TAGCAGGGTT  0.9852 ± 0.0061
168. TAAGGCGGTT  0.984 ± 0.021
169. TAGGGGATCA  0.9839 ± 0.0036
170. AATACATGTA  0.984 ± 0.013
171. TACAAGGGAT  0.983 ± 0.013
172. AAGGGTAAGC  0.981 ± 0.029
173. TTGCTGATTC  0.9811 ± 0.0067
174. TTGATATAAT  0.981 ± 0.014
175. TTGGTTTCGA  0.98 ± 0.013
176. GAGGACATGC  0.979 ± 0.11
177. TAGCTTAACA  0.979 ± 0.018
178. CATTAGGGCT  0.978 ± 0.015
179. GATGTAGATA  0.9778 ± 0.0032
180. GCAGGGAGCG  0.978 ± 0.027
181. TAAGAGATGT  0.978 ± 0.034
182. GTTGAATGGG  0.977 ± 0.011
183. TGGTGTCAGT  0.977 ± 0.022
184. TGTGATTTGA  0.9763 ± 0.0026
185. GGGTTTGATC  0.9749 ± 0.008
186. ATATTTGGCC  0.974 ± 0.021
187. GGTATGCGGT  0.974 ± 0.027
188. AGTTTTTGCT  0.9736 ± 0.0065
189. ATTTTTTGTG  0.9732 ± 0.0082
190. TGCTTATTGG  0.9725 ± 0.0081
191. ACTCGGGACG  0.9715 ± 0.0067
192. TTGGCGCTGT  0.971 ± 0.0017
193. TATTGTAGGG  0.97 ± 0.013
194. AGTTGTATT  0.967 ± 0.022
195. GTTTTCTGAG  0.9658 ± 0.0089
196. TGTTTTGGCG  0.959 ± 0.018
197. ATTATATGGA  0.956 ± 0.01
198. GATGCGAGGT  0.952 ± 0.02
199. GAGAGGAGGG  0.944 ± 0.049
200. ACGGACTTTG  0.941 ± 0.063
